Test [1] addresses C-terminal globular region of the collagen VI α1 chain. Description: SAXS; C-terminal regions in solution (α1, 4.3 mg/ml; α2, 4 mg/ml; α4, 3.5 mg/ml; α6, 3.5 mg/ml) after Superdex200 in 10 mM phosphate buffer, 400 mM NaCl, pH 7.4; EMBL-P12 beamline, PETRAIII; molecular weight from the volume of correlation.
Test [2] concerns the target monomeric heterotrimeric collagen VI molecule composed of one α1 chain, one α2 chain and one α3 chain (mouse (endogenous in tissue)) (UniProt Q04857). Description: immunoelectron microscopy after negative staining; native collagen VI tetramers and microfibrils extracted from E14.5 mouse lungs by collagenase digestion; double labelling for 30 min at 37 °C with colloidal gold-labeled antibodies specific for the N-terminal regions of the long α chains.

For test [3], the target named is C-terminal globular region of the collagen VI α2 chain. Put plainly: SAXS; C-terminal regions in solution (α1, 4.3 mg/ml; α2, 4 mg/ml; α4, 3.5 mg/ml; α6, 3.5 mg/ml) after Superdex200 in 10 mM phosphate buffer, 400 mM NaCl, pH 7.4; EMBL-P12 beamline, PETRAIII; molecular weight from the volume of correlation.
Test [4] addresses monomeric heterotrimeric collagen VI molecule composed of one α1 chain, one α2 chain and one α4 chain (mouse (endogenous in tissue)) (UniProt Q04857). Put plainly: immunoelectron microscopy after negative staining; native collagen VI tetramers and microfibrils extracted from E14.5 mouse lungs by collagenase digestion; double labelling for 30 min at 37 °C with colloidal gold-labeled antibodies specific for the N-terminal regions of the long α chains.

Test [5] concerns the target monomeric heterotrimeric collagen VI molecule composed of one α1 chain, one α2 chain and one α5 chain (mouse (endogenous in E14.5 lung)) (UniProt Q04857). The description is as above.
Test [6] deals with C-terminal globular region of the collagen VI α4 chain. Description: SAXS; C-terminal regions in solution (α1, 4.3 mg/ml; α2, 4 mg/ml; α4, 3.5 mg/ml; α6, 3.5 mg/ml) after Superdex200 in 10 mM phosphate buffer, 400 mM NaCl, pH 7.4; EMBL-P12 beamline, PETRAIII; molecular weight from the volume of correlation.
The target of test [7] is monomeric heterotrimeric collagen VI molecule composed of one α1 chain, one α2 chain and one α6 chain (mouse (endogenous in tissue)) (UniProt Q04857). Description: immunoelectron microscopy after negative staining; native collagen VI tetramers and microfibrils extracted from E14.5 mouse lungs by collagenase digestion; double labelling for 30 min at 37 °C with colloidal gold-labeled antibodies specific for the N-terminal regions of the long α chains.

The term stoichiometry N denotes a count of units in the complex or per binding partner.

The substance “C-terminal globular region of the collagen VI α1 chain (domain or fragment)” registered a stoichiometry N in test [1] of 2. “monomeric heterotrimeric collagen VI molecule composed of one α1 chain, one α2 chain and one α3 chain (from UniProt Q04857 20-1025; Q02788 26-1034) (complex)” showed a stoichiometry N in test [2] of 4. In test [3], “C-terminal globular region of the collagen VI α2 chain (domain or fragment)” gave a stoichiometry N of 2. Turning to “monomeric heterotrimeric collagen VI molecule composed of one α1 chain, one α2 chain and one α4 chain, Q04857 20-1025; Q02788 26-1034; A2AX52 23-2309”, the stoichiometry N in test [4] was determined as 4. As to “monomeric heterotrimeric collagen VI molecule composed of one α1 chain, one α2 chain and one α5 chain, Q04857 20-1025; Q02788 26-1034; A6H584 19-2640”, in test [5], the stoichiometry N stood at 4. The substance “C-terminal globular region of the collagen VI α4 chain (domain or fragment)” had a stoichiometry N in test [6] of 2.

Take “monomeric heterotrimeric collagen VI molecule composed of one α1 chain, one α2 chain and one α6 chain, Q04857 20-1025; Q02788 26-1034; Q8C6K9 19-2265”: the stoichiometry N in test [7] came out at 4.

(Values after publication PMC4777857.)
